Consider two molecules from article PMC9001700 (Communications Biology, 2022).

Common to all, as to conditions: both partners purified
Experiment [1] deals with T1, HCoV-OC43 S-2P-T4f-3C-His8-Strep2x2 (stabilized spike ectodomain) (HCoV-OC43, strain , UniProt P36334, stabilised).
T1 construct: also called HCoV-OC43-S2P.his; stabilized spike ectodomain from HCoV-OC43; source: 293E cells, purified (Ni-NTA, SEC on superose 6)
Nature of the experiment: BLI. For orientation: Biolayer interferometry detects binding as a change in optical thickness at a sensor tip.

Experiment [2] concerns the target T2, HCoV-HKU1 S-2P-T4f-3C-His8-Strep2x2 (stabilized spike ectodomain) (HCoV-HKU1, isolate  (isolate …, UniProt Q0ZME7, stabilised)).
T2 construct: also called HCoV-HKU1-S2P.his; stabilized spike ectodomain from HCoV-HKU1; source: 293E cells, purified (Ni-NTA, SEC on superose 6)
Nature of the experiment: BLI.

Experiment [3] has as its target T3, synthetic stem helix peptide spanning residues 1149–1167 (SARS-CoV-2, UniProt P0DTC2).
T3 chain: KEELDKYFKNHTSPDVDLG
Nature of the experiment: crystal structure.

B1: CV3-25 IgG (antibody, V domains shown)
VH: QVQLVESGAEVKKPGESLKISCKGSGYTFTRYWIGWVRQMPGKGLEWMGIIYPGDSDTRYSPSFQGHVTISADKSISTAYLQWNSLKASDTAMYYCARLPQYCSNGVCQRWFDPWGQGTLVTVSS
VL: EIVLTQSPSSVSASVGDRVTITCRASQGISSWLAWYQQKPGKAPKLLIYAASSLQSGVPSRFSGSGSGTDFTLTISSLQPEDFATYYCQQGNSFPYTFGQGTNLEIK
notes: also called CV3-25 mAb; source: 293 cells, purified (protein A resin); copies: 2 + 2
As to B1, the binding result in experiment [1] and in experiment [2] was “binds” in each case.

B2: CV3-25 Fab (Fab, V domains shown)
VH: QVQLVESGAEVKKPGESLKISCKGSGYTFTRYWIGWVRQMPGKGLEWMGIIYPGDSDTRYSPSFQGHVTISADKSISTAYLQWNSLKASDTAMYYCARLPQYCSNGVCQRWFDPWGQGTLVTVSS
VL: EIVLTQSPSSVSASVGDRVTITCRASQGISSWLAWYQQKPGKAPKLLIYAASSLQSGVPSRFSGSGSGTDFTLTISSLQPEDFATYYCQQGNSFPYTFGQGTNLEIK
notes: also called monovalent Fab
B2: the binding result in experiment [3] was “binds”.
